Consider one substance from patent US20020081638.

In the data set the test system is free histones (mixture of H1, H3, H2B, H2A and H4; Boehringer Mannheim).

On to GST-SUV39H1(82-412) H320R, for which the “in vitro HMTase assay with free histones, activity against the unmutated product” value is recorded as “the latter mutation (H320R) resulted in an hyperactive enzyme with approximately 20-fold increased activity”.
